Assay: yeast display, Sf9 membrane polyspecificity reagent, FACS + sequencing; frameworks hold sequencing errors
Outline: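 A synthetic nanobody library was expressed on Saccharomyces cerevisiae BJ5465 by galactose induction for 36–48 hours. The library was stained for 1 hour at 4 °C with 10% biotinylated, detergent-solubilized Sf9 membrane reagent and enriched with streptavidin microbeads before FACS. Low and high (top ~1%) gates were set on anti-HA fluorescence for expression and streptavidin fluorescence for reagent binding, and each polyreactivity label reflects the gate of origin.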

Sequence | polyreactivity (PSR sort gate)
QVQLVESGGGLVQAGGSLRLSCAASGSIFWSYAMGWYRQAPGKERELVAAITWGCGSTNYADSVKGRFTISRDNAKNTVYLQMNSLIAEDTGVYYCATDNRYVVDYDYWGQGTQVTVSS | high polyreactivity
QVQLVESGGGLVQAGGSLRLSCAASGIIFRVYAMGWYRQAPGKERELVATITWSGGSTFYADSVKGRFTISRDNAKNTVYLQMNSLKPEDTAVYYCAARFLWSVFGRKGGYWGQGTQVTVSS | low polyreactivity
QVQLVESGGGLVQAGGSLRISCAASGRIFYYNAIGWYRQAPGKERELVATITGSGGSSYYADSVKGRFTISRDNAKNTVYLQMKTLKPEDSAVYYCIASRWYYDFYNLDYWGQGTQVTVSS | low polyreactivity
QVQLVESGGGLVQAGGSLRLSCAASGFTFYRNAMGWYRQAPGKERELVARISRGGSTNYADSVKGRFTISRDNAKNTVYLQMNSLKPEDTAVYYCNRDYYVGRYDYWGQGTQVTVSS | high polyreactivity
QVQLVESGGGLVQAGGSLRLSCAASGITFEYYDMGWYRQAPGKERELVAAISWSTDITYADSVKGRFTISRDNAKNTVYLQMNSLKPEDTAVYYCAASTYEYTSYDYWGHGTQVTVSS | low polyreactivity
QVQLVESGGGLVQAGGSLRLSCAASGITFGGNAMGWYRQAPGKERELVAAISGRGGRTYYADSVKGRFTISRDTAKNTVYLQMNSLKPEDTAVYYCAGGGRVRYDYWGQGTQVTVSS | low polyreactivity
QVQVVESGGGIVQAGGSLRLSCAASGSIFETYAMGWYRQAPGKESELVAAISRTSGRTYYADSVKGRFTISRDNAMNSVYLQMNSLKPDDTAVYYCAAVVRNPGTYDYWGQGTQVTVSS | high polyreactivity
QVQLVESGGGLVQAGGSLRLSSAASGSTFWYYAMGWYRQAPGKERELVAGITQSGGSTYYADSVKGRFTISRDNAKNTVYLQMNSLKPEDTAVYYCAKDGRVSGDFDYWGQGTQVTVSS | low polyreactivity
QVQLVETVGGLVQAGGSLRLRCAASGSIFLYNAMGWYRQAPGKERELFAVINGRGGTYYADSVKGRFTISRDNAKNTVYLQINSLKPEDTAVYYCATGYTPSAWYDSVRFEDRDSWGQGTQVTVSS | low polyreactivity
QVQLVESGGGLVQAGGSLRLSCAGSGSTVSANALGSYRQAPGKDRELVAAISRRGGSTNYADSVKGRFTISRDNAKNTVYLQMNSLKPEDTAVYYCAGLYVPRSPFSYDYWGQGTQVTVSS | high polyreactivity
QVQLVESGGGLVQAGGSLRLSCAATGIIYGYVMGWYRQAPGKERELVAVITRSGGSTYYADSVKGRFTISRDNAMNSVYLQMNSLKPEDTAVYYCAAQGIDILYDYWGQGTQVTVSS | low polyreactivity
QVQLVESGGVLVQAGGSLRLSCAASGRTFHDYAMGWYRQAPGKERELVASISSGGSTYYADSVKGRFTISRDNAKNTDYLQMNSLKPEDTAVYYCAAYYYYTLYYRYDYWGQGTQVNVSS | low polyreactivity
QDQLVDSGGGLVQAGGSLRLSCAASGNIFTFNAMGWYRQAPGKERELVAAISRGGRTNYADSVKGRFTISRDNAKNTVYLQMNSLKPEDTAVYYCAAEFPQRASGGRYKTEYDYWRQGTQVTVSS | low polyreactivity
QVQLVESGGGLVQAGGSLRLSCAASGFTFGDYAMGWYRQAPGKERELVAAISRSGSNTYYADSVKGRFTISRDNAKNTVYLQMNSQKPEDTAVYYCNADYDPEDMDYWGQGTQVTVSS | low polyreactivity
QVQLVESGGGLVQAGGSLRLSCAASGRIISYNDMGWYRPAPGKERELVAAISWGGGSTYYADSVKGRFTISRDNAKNTVYLQMNSLKPEDTAVYYCSKGWYRIKRNDYWGQGTQVTVSS | low polyreactivity
QVQLVESGGGLVQAGGSLRLSCAASGITFDGYAMGWYRQAPGKERELVAAITYSGGRTYYADSVKGRFTISRDNAKNTVYLQMNSLKPEDTAVYYCAVVSRRLYDYDYWGQGTQVTVSS | high polyreactivity

Sequence | polyreactivity (PSR sort gate)
QVQLVESGGGLVQAGGSLRLTCAASGRIFTTYAMGWYRQAPGKERELVAAISRSGGSTYYADSVKGRFTISRDNAKNTVYLQMNSMKPEDTAVYYCAAVPTSNSFRSSFYYWGQGTQVTVSS | high polyreactivity
QVQLVESGGGLVQARGRLRLSFAASGSIFSTNAMGWYRQATGKERELVAAISSSDGITYYADSVKGRFTISRDNAMNTVYLQMNSLKPEDTAVYYCAAEYAYGIEESSAYNIYFYWGQGTQVTVSS | high polyreactivity
QVQLVESGGGLVQAGGSLRLSCAASGSTFSYYAMGWYRQAPGKERELVAAITTSGGRTYYADSVKGRFTISRDNAKNTVYLQMNSLKPEDTAVYYCNARSGRLGDYWGQGTQVTVSS | high polyreactivity
QVQLVESGGGLVQAGGSLRLSCAASGRNFVRYTMGWYRQAPGKERELVAAISGSGSSTFYADSVKGRFTISRDNAKNTVYLQMNSLKPEDTAVYYCAARVRRVARDPYDYWGQGTQVTVSS | high polyreactivity
QVQLVESVGGLVQAGGSLRLSCAASGRTFLYYTMGWYRQAPGKERELVAAISTSGGSTNYADSVKGRFTISRDNAKNTVYLQMNSLKPEDTAVYYCAAETSTNPEAYEYWGQGTQVTVSS | low polyreactivity
QVQLVESGGGLVQAGGSLRLSCAASGRIFRLYAMGWYRQAPGKERELVAAISFSGSRTYYADSVKGRFTISRDNAKNNVYLQMNSLQPEDTAVYYCNKDHYVRYGLDYWGQGTQVTVSS | high polyreactivity
QVQLVESEGGLVQAGGSLRLTCAASGFIYKGYAMGSYRQAPGKETELVAAISSSGTSTYYADSVKGRFTISRDNAKNTVYLQMNSLKPEDTAVYYCARVSKRTWSGYYYWGQGTQVTVSS | high polyreactivity
QVQLEDSGGGLLQAGGSLRLSCAASGRILYLYTMGWYRQAPGKERELVAAISRGGSTYYADSVKGRFTISRDNAKNTVYLQMNSLNPEDTAVYYCSADARGYQFNYWGQGTQVTVSS | high polyreactivity
QVQLVESVGGLVQAGGSLRLSCAASGRIFWNYAMGWYRQATGKERELVASISYRGGSTYYADSVKGRFTISRDNAKNTVYLQMNSLKPEDTAVYYCAARTRQARRTDYGYWGQGTQVTVSS | high polyreactivity
QVQLVESGGGLVQAGGSLRLSCAASGITFYVNAMGWYRQAPGKERELVAAISNGGSTNYADSVKGRFTISRDNAKNTVYLQMNSLKPEDTAVYYCAARPSYGRYRYYYWGQGTQVTVSS | high polyreactivity
QVQLVESGGGLVQAGGSLRLSCAASGSTFLDNTMGWYRQAPGKEREFVAAISSSVYSTYYADSVKGRFSISRDNAKNTVYLQMNSLKPEDTAVYFCAADRGFYPSLWDYDYWGQGTQVTVSS | low polyreactivity
QVQLVESGGGLVQAGGSLRLSCAPSGFTFGIYAMGWYRQAPGKERELLADINVSDGSTYYADSVKRRFTISRDNAKNTVYLQMNSLKPEDTAVYYSAAYVYDTIYTSYREYDYWGQGTQVTVST | low polyreactivity
QFQRVESGGGLVQAGGSLRLSCAASGRILSYKVMGWYRQAPGKEREFVASIRRTGVRTYYADSVKGRFTISRDNAKNTVYLQINSLKPEDTGVYYCNAANFHFWDYYYWGQGTQVTVSS | low polyreactivity
QVQLVESGGGLVQAGGRLRLSCAASGSTFGDYAMGWYRQAPGKEREFVAAITWSGGSTNYADSVKGRFTISRDYAKNTVYLPMNSLKPEDTAVYYCAKPWYSSGFEYWGQGTQLTVSS | high polyreactivity
QVQLVESGGGLVQAGGSLRLSCAASGSIFYWYAMGWYRQARGKERELVAGITYSGGNTYYADSVKGRFTISRDNAKNTVYLQMNSLKPEDTAVYYCAATRGYWRKWRMDYWGQGTQVTVSS | high polyreactivity
QVQLVESGGGLVQAGGSLRLTCAASRSIFYPNAMGWYRQAPGKETELVAAISSSGGTNYADSVKGRFTISRDNAQNTVYLQMNSLKPEDTAVYYCNARDKVRYRYSLMDYWGQGTQVTVSS | low polyreactivity

— the nanobody polyreactivity screen of Harvey et al. (2022)
